From US20100285016A1 (Genentech, published 2010)

B1: C-terminally FLAG-tagged ARTN (ligand, UniProt Q5T4W7 108-220, looked up)
chain: AGGPGSRARAAGARGCRLRSQLVPVRALGLGHRSDELVRFRFCSGSCRRARSPHDLSLASLLGAGALRPPPGSRPVSQPCCRPTRYEAVSFMDVNSTWRTVDRLSATACGCLG
notes: Produced in 293T cells and used as conditioned medium; not shown: C-terminal FLAG tag
B2: C-terminally FLAG-tagged PSPN (ligand, UniProt O60542 61-156, looked up)
chain: ALSGPCQLWSLTLSVAELGLGYASEEKVIFRYCAGSCPRGARTQHGLALARLQGQGRAHGGPCCRPTRYTDVAFLDDRHRWQRLPQLSAAACGCGG
notes: as for B1
B3: C-terminally FLAG-tagged NRTN (ligand, UniProt Q99748 96-197, looked up)
chain: ARLGARPCGLRELEVRVSELGLGYASDETVLFRYCAGACEAAARVYDLGLRRLRQRRRLRRERVRAQPCCRPTAYEDEVSFLDAHSRYHTVHELSARECACV
notes: Produced in 293T cells and used as conditioned medium; also called neurturin; not shown: C-terminal FLAG tag

biological target: T1, PRO34128-Fc fusion protein (human, UniProt Q6UXV0 19-351, limits assumed); assay: co-immunoprecipitation with protein-A beads from mixed conditioned media, anti-FLAG western blot
T1 construct: Used as conditioned medium; not shown: Fc portion
T1 sequence: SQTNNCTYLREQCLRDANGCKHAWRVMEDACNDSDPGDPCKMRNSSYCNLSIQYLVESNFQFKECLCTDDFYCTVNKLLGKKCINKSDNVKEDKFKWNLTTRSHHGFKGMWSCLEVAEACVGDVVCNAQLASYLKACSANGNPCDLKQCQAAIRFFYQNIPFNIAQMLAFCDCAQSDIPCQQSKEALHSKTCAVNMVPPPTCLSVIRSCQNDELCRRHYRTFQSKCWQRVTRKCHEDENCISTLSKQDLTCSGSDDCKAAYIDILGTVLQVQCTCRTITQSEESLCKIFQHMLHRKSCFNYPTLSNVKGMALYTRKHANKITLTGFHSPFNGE
Procedure: GFR1-Fc, GFR2-Fc, GFR3-Fc, GFR4-Fc and PRO34128-Fc fusion proteins were produced by transfecting appropriate expression constructs using Fugene6™ (Roche Biosciences). C-terminally FLAG-tagged GDNF, NRTN, ARTN, PSPN and LEFTY-B were also produced in 293T cells by transfecting the appropriate expression construct in 293T cells using Fugene6™. All expression constructs are under CMV promoter control. The conditioned media were collected 48 hours post transfection and appropriate Fc fusion proteins (as indicated in the FIG. 6A) were mixed with the ligands and the interacting complexes were immunoprecipitated using protein-A beads (Sigma). Immunoprecipiated proteins were resolved on a SDS-PAGE and detected by western blotting. The co-precipitating FLAG-tagged proteins were detected using an anti-FLAG antibody (Sigma) at a final concentration of 1 μg/ml, HRP-conjugated anti-mouse antibody (ICN Biosciences) and a chemiluminescent substrate (Amersham).

Binding result, no binding:
B1, B2, B3
